Reference: PMC2173521

Legend:
[1] = target: N-1 peptide (derived from HRA of the SV5 F protein) (SV5 (W3A strain))
[2] = target: N-1 peptide (derived from HRA of the SV5 F protein) (SV5 (W3A strain)); experiment: AUC

C-1 peptide (derived from HRB of the SV5 F protein), wild type
IC50 inhibition of cell–cell fusion by SV5 F (T7 luciferase reporter gene assay) [1]: 38 nM

C-1 peptide I449A
IC50 inhibition of cell–cell fusion by SV5 F (T7 luciferase reporter gene assay) [1]: 115 nM | Mobs/Mcalc (mol wt found over that calculated for one N-1/C-1 heterodimer) [2]: 2.8

C-1 peptide I449F
IC50 inhibition of cell–cell fusion by SV5 F (T7 luciferase reporter gene assay) [1]: 151 nM | Mobs/Mcalc (mol wt found over that calculated for one N-1/C-1 heterodimer) [2]: 2.9

C-1 peptide I449G
IC50 inhibition of cell–cell fusion by SV5 F (T7 luciferase reporter gene assay) [1]: 271 nM | Mobs/Mcalc (mol wt found over that calculated for one N-1/C-1 heterodimer) [2]: 2.9

C-1 peptide I449L
IC50 inhibition of cell–cell fusion by SV5 F (T7 luciferase reporter gene assay) [1]: 54 nM | Mobs/Mcalc (mol wt found over that calculated for one N-1/C-1 heterodimer) [2]: 2.8

C-1 peptide I449V
IC50 inhibition of cell–cell fusion by SV5 F (T7 luciferase reporter gene assay) [1]: 58 nM | Mobs/Mcalc (mol wt found over that calculated for one N-1/C-1 heterodimer) [2]: 3

C-1 peptide I449W
IC50 inhibition of cell–cell fusion by SV5 F (T7 luciferase reporter gene assay) [1]: 146 nM

C-1 peptide L447A
IC50 inhibition of cell–cell fusion by SV5 F (T7 luciferase reporter gene assay) [1]: 92 nM | Mobs/Mcalc (mol wt found over that calculated for one N-1/C-1 heterodimer) [2]: 2.8

C-1 peptide L447F
IC50 inhibition of cell–cell fusion by SV5 F (T7 luciferase reporter gene assay) [1]: 100 nM | Mobs/Mcalc (mol wt found over that calculated for one N-1/C-1 heterodimer) [2]: 2.9

C-1 peptide L447G
IC50 inhibition of cell–cell fusion by SV5 F (T7 luciferase reporter gene assay) [1]: 150 nM | Mobs/Mcalc (mol wt found over that calculated for one N-1/C-1 heterodimer) [2]: 2.7

C-1 peptide L447I
IC50 inhibition of cell–cell fusion by SV5 F (T7 luciferase reporter gene assay) [1]: 50 nM | Mobs/Mcalc (mol wt found over that calculated for one N-1/C-1 heterodimer) [2]: 2.8

C-1 peptide L447V
IC50 inhibition of cell–cell fusion by SV5 F (T7 luciferase reporter gene assay) [1]: 83 nM | Mobs/Mcalc (mol wt found over that calculated for one N-1/C-1 heterodimer) [2]: 2.8

C-1 peptide L447W
IC50 inhibition of cell–cell fusion by SV5 F (T7 luciferase reporter gene assay) [1]: 106 nM | Mobs/Mcalc (mol wt found over that calculated for one N-1/C-1 heterodimer) [2]: 3.1
